In assay [1] the target is FcγRIIIa (from Sino Biological, also known as CD16a) (UniProt P08637). Description: BLI (Fortebio), FcγRIIIa on SA sensor, antibody 31.3-500 nM, 30 C, 1:1 fit. (In general: In BLI a coated tip is dipped into the sample, and binding shifts an interference pattern.)
Assay [2] addresses human NT5E(1-552)-his (human) (UniProt P21589). Description: BLI (Fortebio), antibody on Protein A sensor, antigen 3.125-200 nM, 37 C, 1:1 fit.
The target in assay [3] is human NT5E-Biotin (for NT5E, GenbankID: NP_002517.1, position: 1-552) (human) (UniProt P21589). Nature of the assay: ELISA, NT5E-Biotin on streptavidin plate; antibody 0.333 ug/mL diluted 1:243. On the technique in general: ELISA stands for enzyme-linked immunosorbent assay.
human NT5E-Biotin (for NT5E, GenbankID: NP_002517.1, position: 1-552) (human), sequence (P21589 27-552 limits assumed, form in doubt): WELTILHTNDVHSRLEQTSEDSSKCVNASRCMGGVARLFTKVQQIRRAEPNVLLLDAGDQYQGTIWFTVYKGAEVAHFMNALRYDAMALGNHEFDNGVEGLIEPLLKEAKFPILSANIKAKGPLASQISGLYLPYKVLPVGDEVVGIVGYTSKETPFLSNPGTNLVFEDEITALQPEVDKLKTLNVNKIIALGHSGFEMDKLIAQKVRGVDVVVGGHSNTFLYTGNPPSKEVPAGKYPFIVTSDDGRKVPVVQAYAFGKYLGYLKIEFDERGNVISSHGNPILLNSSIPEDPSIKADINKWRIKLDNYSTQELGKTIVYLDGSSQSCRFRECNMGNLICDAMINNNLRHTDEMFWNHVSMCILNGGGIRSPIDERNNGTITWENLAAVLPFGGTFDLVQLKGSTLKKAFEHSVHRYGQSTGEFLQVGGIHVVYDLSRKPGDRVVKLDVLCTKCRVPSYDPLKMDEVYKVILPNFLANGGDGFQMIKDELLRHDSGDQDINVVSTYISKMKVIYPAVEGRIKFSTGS
For assay [4] the target is unchanged. Nature of the assay: ELISA, NT5E-Biotin on streptavidin plate; antibody 0.333 ug/mL diluted 1:27.
Assay [5] has the same target. Nature of the assay: ELISA, NT5E-Biotin on streptavidin plate; antibody 0.333 ug/mL diluted 1:729.
Assay [6] has the same target. Description: ELISA, NT5E-Biotin on streptavidin plate; antibody 0.333 ug/mL.
Assay [7] shares this target. Description: ELISA, NT5E-Biotin on streptavidin plate; antibody 0.333 ug/mL diluted 1:3.
In assay [8] the target is CD73 endogenously expressed on the cell surface (MDA-MB-231 cells; U87-MG cells) (UniProt P21589). Nature of the assay: flow cytometry on MDA-MB-231 cells; antibody 0.41 nM. (In general: In flow cytometry, cells or beads pass a laser one at a time.)
CD73 endogenously expressed on the cell surface (MDA-MB-231 cells; U87-MG cells), sequence (P21589 27-549 limits assumed): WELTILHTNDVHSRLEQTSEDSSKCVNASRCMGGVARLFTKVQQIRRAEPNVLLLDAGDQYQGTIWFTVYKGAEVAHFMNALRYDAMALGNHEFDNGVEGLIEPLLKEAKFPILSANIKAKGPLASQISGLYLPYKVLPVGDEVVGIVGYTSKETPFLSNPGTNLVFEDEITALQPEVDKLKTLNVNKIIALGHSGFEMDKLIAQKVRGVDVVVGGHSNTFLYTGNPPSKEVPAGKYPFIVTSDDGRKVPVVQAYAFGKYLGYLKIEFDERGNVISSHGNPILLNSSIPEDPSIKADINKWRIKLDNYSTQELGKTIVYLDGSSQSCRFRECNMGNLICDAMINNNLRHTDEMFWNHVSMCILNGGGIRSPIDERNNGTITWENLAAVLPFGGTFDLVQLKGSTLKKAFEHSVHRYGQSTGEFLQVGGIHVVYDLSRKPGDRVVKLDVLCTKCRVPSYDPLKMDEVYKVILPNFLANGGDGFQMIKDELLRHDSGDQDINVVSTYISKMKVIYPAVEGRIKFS
The target is the same in assay [9]. Description: flow cytometry on MDA-MB-231 cells.
The target of assay [10] is human NT5E-Biotin (for NT5E, GenbankID: NP_002517.1, position: 1-552) (human) (UniProt P21589). Description: ELISA, NT5E-Biotin on streptavidin plate.
Assay [11] has the same target. Description: ELISA, NT5E-Biotin on streptavidin plate; antibody 0.333 ug/mL diluted 1:9.
Assay [12] concerns the target CD73 endogenously expressed on the cell surface (MDA-MB-231 cells; U87-MG cells) (UniProt P21589). Description: flow cytometry on MDA-MB-231 cells; antibody 0.14 nM.
The target of assay [13] is human NT5E-Biotin (for NT5E, GenbankID: NP_002517.1, position: 1-552) (human) (UniProt P21589). Nature of the assay: ELISA, NT5E-Biotin on streptavidin plate; antibody 0.333 ug/mL diluted 1:81.

pEC50, pKd: −log10 of the molar value. Values joined by “and” are separate entries in the source; they are usually repeats but may differ in a detail not shown here. Equal entries are not always repeated.

human NT5E(1-552)-his (human), sequence (P21589 27-552 limits assumed, form in doubt): as the sequence (P21589 27-552 limits assumed, form in doubt) above
FcγRIIIa (from Sino Biological, also known as CD16a), sequence (P08637 17-208 limits assumed): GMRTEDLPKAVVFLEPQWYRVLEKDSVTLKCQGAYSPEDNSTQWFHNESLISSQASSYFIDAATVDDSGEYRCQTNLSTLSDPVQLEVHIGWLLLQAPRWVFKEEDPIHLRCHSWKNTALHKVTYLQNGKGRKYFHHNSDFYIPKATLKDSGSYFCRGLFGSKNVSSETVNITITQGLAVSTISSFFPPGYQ

What is called pKd is −log10 of the Kd, conventionally taken in molar units. Higher therefore signals a low Kd. For orientation: koff means a measure of how fast the partners let go of each other. Lower therefore signals a long-lived complex. What is called kon is the second-order rate constant of association. A higher kon goes with faster complex formation. In [1], Wild-type IgG1 antibody gave a pKd of 6.90, an off-rate (koff) of 0.022 s⁻¹ and a kon of 176000 M⁻¹ s⁻¹.

By pEC50 is commonly meant the EC50 on a negative log10 scale, so that one unit is a factor of ten. For “positive control antibody MEDI9447 (oleclumab)”, the negative logarithm of the Kd (pKd) is 9.98 in assay [2] and 6.85 in [1]. This substance also displayed a S E (kon) in assay [2] of 3200 M⁻¹ s⁻¹. For the same substance, the S E(kdis) in [2] turned out to be 5.02e-06 s⁻¹. Moreover, the values for the dissociation rate constant (koff) in assay [2] and in [1] were 2.44e-05 s⁻¹ and 0.0342 s⁻¹, respectively. Moreover, the values for the kon in assay [2] and in assay [1] were 234000 M⁻¹ s⁻¹ and 243000 M⁻¹ s⁻¹, respectively. Moreover, the OD (450 nm) in assay [3] was 0.536 and 0.528; in assay [4], 1.77 and 1.74; in [5], 0.272 and 0.275; in assay [6], 2.55 and 2.53; in assay [7] it was 2.57 and 2.6; in assay [11] it was 2.27 and 2.28. Further, in assay [13], the OD (450 nm) is 1.06 and 1.03. For the same substance, the FACS fluorescence signal (read-out not given) came to 91 in assay [8] and 43.2 in assay [12]. The values for the negative-log EC50 (pEC50) in [9] and in [10] were 8.84 and 10.32, respectively.

The values above are taken from patent publication EP4790071A2.
